From the supplement of paper PMC10126150
± gives the standard deviation of the averaged measurements.

These sequences were tested on ATP (assay: switch fluorescence ratio, 500 uM ATP over buffer (Cy3 cluster intensity, sum of 5 cycles each) (fold (ratio)); higher = stronger signal-on switching upon ATP binding; sequences stand for … in TCGTCGGCAGCGTCAGATGTGTATAAGAGACAGTTTTTTTTTTTTTTTTTTTTTTTTT…TC). Settings: aptamer strand: ATP DNA aptamer (quencher-CACCTGGGGGAGTATTGCGGAGGAAGG + anchor), 100 nM annealed; ATP concentration: 500 uM.
In short: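 Cy3-labelled switching-strand clusters on a modified Illumina MiSeq flow-cell were annealed to 100 nM quencher-labelled ATP aptamer and imaged first in selection buffer, then after 15 min with 500 uM ATP at 22 °C. NaOH stripping and re-annealing separated each of five buffer/ATP cycles, and clusters outside 100-1000 RFU were excluded. The fluorescence ratio sums target-cycle Cy3 intensity over buffer-cycle Cy3 intensity per cluster and averages it per switch-domain sequence.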
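Also: ATP exposure 15 min at 22 °C before imaging.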

Row | Sequence | switch fluorescence ratio
1 | CCAAAGGGAT | 1.28 ± 0.38
2 | CCAAAGGGGA | 1.15 ± 0.27
3 | CCAAAGGTTT | 1.13 ± 0.22
4 | CCAAATGTCT | 1.016 ± 0.0049
5 | CCAAATTTAA | 1.03 ± 0.01
6 | CCAACGGGGA | 1.1 ± 0.085
7 | CCAACGGTGC | 2.24 ± 0.095
8 | CCAACTTGGA | 0.9849 ± 0.003
9 | CCAAGCGCCC | 1.63 ± 0.23
10 | CCAAGCGCCG | 1.12 ± 0.13
11 | CCAAGGACAC | 1.1498 ± 0.001
12 | CCAAGGAGGG | 0.999 ± 0.017
13 | CCAAGGAGTC | 0.992 ± 0.024
14 | CCAAGGATAA | 1.047 ± 7.2e-05
15 | CCAAGGCTTA | 1.06 ± 0.063
16 | CCAAGGGTTT | 0.993 ± 0.06
17 | CCAATAAATT | 0.974 ± 0.018
18 | CCAATAGACG | 1.01 ± 0.03
19 | CCAATCCAGT | 1.01 ± 0.013
20 | CCAATGGGGG | 0.982 ± 0.04
21 | CCAATTGTGG | 0.9977 ± 0.0056
22 | CCAATTTTAA | 0.985 ± 0.029
23 | CCACAGGGTG | 4.53 ± 1.5
24 | CCACAGTAAT | 4.75 ± 0.34
25 | CCACCGGGCC | 1.36 ± 0.076

Row | Sequence | switch fluorescence ratio
26 | CCACCTTACG | 1.54 ± 0.077
27 | CCACGCGGCA | 1.19 ± 0.091
28 | CCACGGACAA | 1.645 ± 0.0082
29 | CCACGGGTTA | 1.045 ± 0.005
30 | CCACGGTTAG | 0.981 ± 0.023
31 | CCACGTTGAA | 1.05 ± 0.033
32 | CCACTAGTCG | 1.02 ± 0.016
33 | CCACTGTGGT | 0.978 ± 0.013
34 | CCAGACACAG | 0.9849 ± 0.002
35 | CCAGACTTTT | 0.999 ± 0.043
36 | CCAGAGACCG | 1.04 ± 0.012
37 | CCAGAGAGCC | 1.04 ± 0.028
38 | CCAGAGGGAT | 0.992 ± 0.024
39 | CCAGATGGCA | 1.02 ± 0.082
40 | CCAGATTTTA | 0.992 ± 0.015
41 | CCAGCAGGGA | 1.37 ± 0.49
42 | CCAGCCAATA | 3.36 ± 0.12
43 | CCAGCGGGGC | 1.05 ± 0.019
44 | CCAGGAACTC | 1.02 ± 0.025
45 | CCAGGACTGC | 0.972 ± 0.036
46 | CCAGGGCAGC | 1.06 ± 0.079
47 | CCAGGGCGTG | 1.02 ± 0.069
48 | CCAGGGGGAA | 1.09 ± 0.12
49 | CCAGGGGGGG | 1.24 ± 0.32
50 | CCAGGGGGTT | 1.51 ± 0.59

Row | Sequence | switch fluorescence ratio
51 | CCAGGTAGG | 1.24 ± 0.068
52 | CCAGGTTTCA | 1.03 ± 0.046
53 | CCAGGTTTGT | 1.17 ± 0.016
54 | CCAGGTTTTG | 1.08 ± 0.031
55 | CCAGTAAAAT | 1.01 ± 0.019
56 | CCAGTAAATT | 0.993 ± 0.046
57 | CCAGTAATGT | 1.04 ± 0.041
58 | CCAGTACTGA | 1.021 ± 0.0094
59 | CCAGTCATTT | 1.03 ± 0.027
60 | CCAGTGGGGC | 1.01 ± 0.072
61 | CCAGTGTGTG | 1.09 ± 0.062
62 | CCAGTTATGG | 0.999 ± 0.068
63 | CCAGTTTGCA | 1.02 ± 0.017
64 | CCATAAATAG | 1.169 ± 0.0077
65 | CCATACGGGG | 0.998 ± 0.023
66 | CCATATAGAG | 1.02 ± 0.027
67 | CCATGCGATG | 1.21 ± 0.1
68 | CCATGGTTGT | 1.011 ± 0.005
69 | CCATGGTTTT | 1.0024 ± 0.00092
70 | CCATGTATAA | 1.02 ± 0.016
71 | CCATGTCAGC | 1.03 ± 0.021
72 | CCATGTGAAG | 0.992 ± 0.027
73 | CCATGTGTAG | 1 ± 0.017
74 | CCATGTGTCG | 1.05 ± 0.064
75 | CCATTAATAG | 1.04 ± 0.057

Row | Sequence | switch fluorescence ratio
76 | CCATTAGTTT | 0.987 ± 0.018
77 | CCATTCTTGT | 1.04 ± 0.022
78 | CCATTTCTGA | 1.03 ± 0.015
79 | CCATTTGTGT | 0.976 ± 0.023
80 | CCCAAAAACG | 1.25 ± 0.29
81 | CCCAATTCCT | 1.14 ± 0.031
82 | CCCAATTTCT | 1.05 ± 0.045
83 | CCCACCGGGC | 1.05 ± 0.022
84 | CCCACCGTTG | 1.17 ± 0.03
85 | CCCAGCACGT | 1.37 ± 0.04
86 | CCCAGGGT | 1.54 ± 0.67
87 | CCCATTATGC | 1.13 ± 0.057
88 | CCCATTGTCG | 1.01 ± 0.064
89 | CCCATTTTGC | 1.032 ± 0.0067
90 | CCCCAGAGCT | 1.66 ± 0.066
91 | CCCCAGGGGT | 2.44 ± 2
92 | CCCCGGCTGG | 1.125 ± 0.005
93 | CCCCGGGGGG | 1.09 ± 0.15
94 | CCCCTGTTTT | 1.01 ± 0.022
95 | CCCGAAGGGC | 1.01 ± 0.081
96 | CCCGACTTTA | 1.04 ± 0.014
97 | CCCGAGTATG | 1.034 ± 0.0099
98 | CCCGATGTTA | 0.9973 ± 0.0041
99 | CCCGATTTTG | 1.023 ± 0.0069
100 | CCCGGACGGT | 1 ± 0.025

Row | Sequence | switch fluorescence ratio
101 | CCCGGATTTG | 1.01 ± 0.055
102 | CCCGGCTGTT | 1.02 ± 0.067
103 | CCCGGGAAAT | 1.04 ± 0.059
104 | CCCGGGAGGT | 1.035 ± 0.0094
105 | CCCGGGGGCT | 1.41 ± 0.032
106 | CCCGGGTTGG | 1.12 ± 0.08
107 | CCCGGTATCG | 0.983 ± 0.013
108 | CCCGGTTTAG | 1.03 ± 0.0015
109 | CCCGTATATC | 2.72 ± 0.44
110 | CCCGTGCCTA | 1.03 ± 0.064
111 | CCCGTGTGAG | 0.983 ± 0.045
112 | CCCTAGGATT | 1.01 ± 0.03
113 | CCCTAGGGTC | 1.01 ± 0.023
114 | CCCTAGGGTT | 1.44 ± 0.56
115 | CCCTAGTATG | 0.9915 ± 0.0059
116 | CCCTATTTGC | 1.06 ± 0.02
117 | CCCTGATCTG | 1.02 ± 0.011
118 | CCCTGGACGG | 0.9883 ± 0.0053
119 | CCCTGTCATC | 2.1 ± 1.4
120 | CCCTGTGAGC | 1.08 ± 0.013
121 | CCCTTGATGC | 1.151 ± 0.008
122 | CCGAAAAGCT | 1.17 ± 0.041
123 | CCGAAGGTTA | 1.09 ± 0.032
124 | CCGAATAATT | 1.08 ± 0.011
125 | CCGAATAGTT | 1.18 ± 0.14

Row | Sequence | switch fluorescence ratio
126 | CCGAATTATA | 2.04 ± 1.3
127 | CCGAATTGGG | 1.01 ± 0.032
128 | CCGAGATCTT | 1.03 ± 0.032
129 | CCGAGCTTGA | 1.61 ± 0.085
130 | CCGAGGAATG | 1.106 ± 0.0083
131 | CCGAGTTTGT | 1.05 ± 0.011
132 | CCGATAATAG | 5.21 ± 2.2
133 | CCGATTAAAT | 1.44 ± 0.1
134 | CCGATTACGC | 1.9 ± 0.13
135 | CCGATTGGCA | 1.55 ± 0.14
136 | CCGATTGTTG | 1.02 ± 0.038
137 | CCGCACGAGT | 3.73 ± 0.63
138 | CCGCACTAAG | 3.94 ± 0.74
139 | CCGCATTTGT | 2.68 ± 2.4
140 | CCGCCATTGG | 1.62 ± 0.069
141 | CCGCCGGGGT | 1.91 ± 0.31
142 | CCGCGCTGCC | 2.71 ± 0.8
143 | CCGCGGCTGG | 1.154 ± 0.01
144 | CCGGAAGCAG | 3.95 ± 0.66
145 | CCGGAATCAT | 1.127 ± 0.00097
146 | CCGGAGGGAG | 1.0201 ± 0.0006
147 | CCGGAGTTGG | 3.49 ± 0.11
148 | CCGGATACGT | 1.39 ± 0.086
149 | CCGGATTGTC | 1.13 ± 0.044
150 | CCGGCGGGGC | 1 ± 0.013

Row | Sequence | switch fluorescence ratio
151 | CCGGCGGGGG | 1.4 ± 0.56
152 | CCGGCTTGCA | 1.13 ± 0.017
153 | CCGGGAAGGG | 1.05 ± 0.012
154 | CCGGGAGCAG | 1.95 ± 0.61
155 | CCGGGATGGT | 1.14 ± 0.057
156 | CCGGGATTGA | 1.083 ± 0.0038
157 | CCGGGCCAGC | 1.47 ± 0.063
158 | CCGGGGAACA | 1.004 ± 0.0069
159 | CCGGGGAAGT | 0.978 ± 0.031
160 | CCGGGGACTG | 1.1 ± 0.033
161 | CCGGGGATGT | 1.05 ± 0.04
162 | CCGGGGATTC | 1.36 ± 0.2
163 | CCGGGGGATG | 1.03 ± 0.042
164 | CCGGGGGGGG | 1.1 ± 0.17
165 | CCGGGGTAGA | 1.02 ± 0.023
166 | CCGGGGTCGG | 1.04 ± 0.057
167 | CCGGGGTGGT | 1.07 ± 0.035
168 | CCGGGTATTG | 1.027 ± 0.0036
169 | CCGGTAGGTA | 0.969 ± 0.011
170 | CCGGTATGGT | 1.012 ± 0.0077
171 | CCGGTCAGCC | 1.11 ± 0.039
172 | CCGGTCTACA | 1.05 ± 0.047
173 | CCGGTGAGGG | 0.999 ± 0.05
174 | CCGGTGCCAA | 3.85 ± 0.21
175 | CCGGTGTAGA | 1.01 ± 0.034

Row | Sequence | switch fluorescence ratio
176 | CCGGTGTTTG | 0.987 ± 0.021
177 | CCGGTGTTTT | 1.06 ± 0.041
178 | CCGGTTTGGA | 1.13 ± 0.17
179 | CCGGTTTGGC | 1.062 ± 0.006
180 | CCGGTTTTTT | 1.003 ± 0.0078
181 | CCGTAATAGG | 4.83 ± 0.55
182 | CCGTAATCAG | 1.98 ± 0.14
183 | CCGTAATGTG | 1.5 ± 0.16
184 | CCGTAGGAGG | 1 ± 0.021
185 | CCGTATATCC | 2.44 ± 0.16
186 | CCGTCGAATA | 2.2 ± 0.027
187 | CCGTCGATGG | 1.1 ± 0.036
188 | CCGTGAGGGT | 1.02 ± 0.038
189 | CCGTGGGACC | 1.11 ± 0.016
190 | CCGTGGGTAC | 5.55 ± 0.7
191 | CCGTGGTACC | 1.84 ± 0.12
192 | CCGTGGTTTT | 0.99133 ± 5.8e-05
193 | CCGTGTAAGC | 1.343 ± 0.0024
194 | CCGTGTTCGA | 1.01 ± 0.051
195 | CCGTTAGTAA | 3.13 ± 0.46
196 | CCGTTCGACA | 1.37 ± 0.058
197 | CCGTTGACCT | 1.073 ± 0.01
198 | CCGTTGAGTC | 1.06 ± 0.049
199 | CCGTTGGGGG | 1.01 ± 0.036
200 | CCGTTGTGGA | 1.038 ± 0.0027
